Target: C4BPα1–2 (His6-tagged fragment of human C4b-binding protein) (human)
Test: ITC; 23 °C, PBS; 300 to 500 μM intact M2 or M2G in the syringe, 30 to 50 μM C4BPα1–2 in the cell; single-site model

Substance	Kd [µM]	dH [kcal/mol]	stoichiometry N
M2G (M2_(53)G; M2 aa 53–86 fused to GCN4)	4	-27	0.51
intact M2 protein (Streptococcus pyogenes, strain AP2) (natural protein)	4	-24	0.5

Source: paper PMC10400905
